Source: publication PMC9352680, “A comprehensive thermodynamic model for RNA binding by the Saccharomyces cerevisiae Pumilio protein PUF4”
Residue numbers refer to the chain shown, from its start. Names and notes keep the numbering of the source.

Target: T1, PUF4 RNA-binding domain (Saccharomyces cerevisiae, UniProt P25339 537-888)
T1 sequence: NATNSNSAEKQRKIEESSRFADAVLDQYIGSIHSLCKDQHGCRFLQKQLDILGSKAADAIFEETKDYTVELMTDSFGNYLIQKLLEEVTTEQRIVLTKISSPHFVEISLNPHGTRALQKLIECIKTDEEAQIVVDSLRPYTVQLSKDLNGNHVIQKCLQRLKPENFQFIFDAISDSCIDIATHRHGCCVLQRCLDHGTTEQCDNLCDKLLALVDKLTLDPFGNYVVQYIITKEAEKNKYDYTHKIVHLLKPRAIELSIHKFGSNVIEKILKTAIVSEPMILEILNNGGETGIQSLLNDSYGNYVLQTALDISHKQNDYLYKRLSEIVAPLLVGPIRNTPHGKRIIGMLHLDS
Test: Mg; RNA-MaP; 20 mM Na-HEPES pH 7.4, 30 mM KOAc, 0.75 mM MgCl2, 0.1% Tween-20, 5% glycerol, 0.1 mg/mL BSA, 2 mM DTT; 25 C; 0.0125-409.6 nM protein
Settings: tags: N-His6-TEV cleaved; C-SNAP kept, Cy3B-labelled; label: tethered on chip by stalled RNA polymerase

B1: Ic_S4_P3E.1_K3.1_C3.1_H3.1_A3.1_[T5C]_F3.1_[T7C]_[A8T]_T3.1 (ssRNA)
RNA: UUUGACAACUGAUCGUUCUUUCUUGUACACUUUCUUUCUCGAUCAGUUGUCUUU
For B1, the Kd was 5.34 nM.

B2: Ic_S4_P3E.1_K3.1_C3.1_H3.1_A3.1_[T5C]_F3.1_[T7A]_T3.1 (ssRNA)
RNA: B1 RNA with C30A, U31A
Binder B2 has a Kd of 41.6 nM.

B3: Ic_S4_P3E.1_K3.1_C3.1_H3.1_A3.1_[T5C]_F3.1_[A8T]_T3.1 (ssRNA)
RNA: B1 RNA with C30U
Binder B3 has a Kd of 2.28 nM.

B4: Ic_S4_P3E.1_K3.1_C3.1_H3.1_A3.1_[T5A]_[A6C]_F3.1_[T7G]_[A8T]_T3.1 (ssRNA)
RNA: B1 RNA with C28A, A29C, C30G
For B4, the Kd was 270 nM.

B5: Ic_S4_P3E.1_K3.1_C3.1_H3.1_A3.1_[T5A]_[A6C]_F3.1_[T7A]_[A8C]_T3.1 (ssRNA)
RNA: B1 RNA with C28A, A29C, C30A, U31C
Binder B5 has a Kd of 144 nM.

B6: Ic_S4_P3E.1_K3.1_C3.1_H3.1_A3.1_[T5A]_[A6C]_F3.1_[T7A]_[A8T]_T3.1 (ssRNA)
RNA: B1 RNA with C28A, A29C, C30A
B6 gave a Kd of 15.1 nM.

B7: Ic_S4_P3E.1_K3.1_C3.1_H3.1_A3.1_[T5A]_[A6C]_F3.1_[A8C]_T3.1 (ssRNA)
RNA: B1 RNA with C28A, A29C, C30U, U31C
In the case of B7, the Kd is reported as 78.8 nM.

B8: Ic_S4_P3E.1_K3.1_C3.1_H3.1_A3.1_[T5A]_[A6C]_F3.1_[A8T]_T3.1 (ssRNA)
RNA: B1 RNA with C28A, A29C, C30U
Binder B8 has a Kd of 21.6 nM.

UCUCUUUGUCUAUUGUCUCUU (ssRNA) [Ib_S1_P4E.1_K4.1_C4.1_H4.1_[A4C]_A4.1_F4.1_[A9G]_T4.1] showed a Kd of 569 nM.

B9: Ic_S4_P3E.1_K3.1_C3.1_H3.1_A3.1_[T5A]_[A6T]_F3.1_[T7C]_[A8T]_T3.1 (ssRNA)
RNA: B1 RNA with C28A, A29U
In the case of B9, the Kd is reported as 18.3 nM.

B10: Ic_S4_P3E.1_K3.1_C3.1_H3.1_A3.1_[T5A]_[A6T]_F3.1_[T7A]_[A8G]_T3.1 (ssRNA)
RNA: B1 RNA with C28A, A29U, C30A, U31G
Work on B10 yielded a Kd of 1240 nM.

B11: Ic_S4_P3E.1_K3.1_C3.1_H3.1_A3.1_[T5A]_[A6T]_F3.1_[T7A]_[A8C]_T3.1 (ssRNA)
RNA: B1 RNA with C28A, A29U, C30A, U31C
With B11 the Kd was 226 nM.

B12: Ic_S4_P3E.1_K3.1_C3.1_H3.1_A3.1_[T5A]_[A6T]_F3.1_[T7A]_T3.1 (ssRNA)
RNA: B1 RNA with C28A, A29U, C30A, U31A
Binder B12 has a Kd of 126 nM.

B13: Ic_S4_P3E.1_K3.1_C3.1_H3.1_A3.1_[T5A]_[A6T]_F3.1_[A8G]_T3.1 (ssRNA)
RNA: B1 RNA with C28A, A29U, C30U, U31G
B13 gave a Kd of 220 nM.

B14: Ic_S4_P3E.1_K3.1_C3.1_H3.1_A3.1_[T5A]_[A6T]_F3.1_T3.1 (ssRNA)
RNA: B1 RNA with C28A, A29U, C30U, U31A
In the case of B14, the Kd is reported as 65.6 nM.

B15: Ic_S4_P3E.1_K3.1_C3.1_H3.1_A3.1_[T5A]_F3.1_[A8T]_T3.1 (ssRNA)
RNA: B1 RNA with C28A, C30U
For B15, the Kd was 19.3 nM.

B16: Ic_S4_P3E.1_K3.1_C3.1_H3.1_A3.1_[A6G]_F3.1_[T7C]_[A8T]_T3.1 (ssRNA)
RNA: B1 RNA with C28U, A29G
In the case of B16, the Kd is reported as 54.5 nM.

B17: Ic_S4_P3E.1_K3.1_C3.1_H3.1_A3.1_[A6G]_F3.1_T3.1 (ssRNA)
RNA: B1 RNA with C28U, A29G, C30U, U31A
With B17 the Kd was 27.4 nM.

B18: Ic_S4_P3E.1_K3.1_C3.1_H3.1_A3.1_[A6C]_F3.1_[T7G]_[A8G]_T3.1 (ssRNA)
RNA: B1 RNA with C28U, A29C, C30G, U31G
B18 showed a Kd of 1930 nM.

Binder UCUCUUUGUUUAUUGUCUCUU (ssRNA) [Ib_S1_P4E.1_K4.1_C4.1_H4.1_[A4T]_A4.1_F4.1_[A9G]_T4.1] has a Kd of 163 nM.

B19: Ic_S4_P3E.1_K3.1_C3.1_H3.1_A3.1_[A6C]_F3.1_[T7G]_[A8T]_T3.1 (ssRNA)
RNA: B1 RNA with C28U, A29C, C30G
With B19 the Kd was 178 nM.

B20: Ic_S4_P3E.1_K3.1_C3.1_H3.1_A3.1_[A6C]_F3.1_[T7C]_[A8G]_T3.1 (ssRNA)
RNA: B1 RNA with C28U, A29C, U31G
With B20 the Kd was 392 nM.

B21: Ic_S4_P3E.1_K3.1_C3.1_H3.1_A3.1_[A6C]_F3.1_[T7C]_[A8T]_T3.1 (ssRNA)
RNA: B1 RNA with C28U, A29C
In the case of B21, the Kd is reported as 27.6 nM.

B22: Ic_S4_P3E.1_K3.1_C3.1_H3.1_A3.1_[A6C]_F3.1_[T7A]_[A8C]_T3.1 (ssRNA)
RNA: B1 RNA with C28U, A29C, C30A, U31C
Binder B22 has a Kd of 80.4 nM.

B23: Ic_S4_P3E.1_K3.1_C3.1_H3.1_A3.1_[A6C]_F3.1_[T7A]_[A8T]_T3.1 (ssRNA)
RNA: B1 RNA with C28U, A29C, C30A
Work on B23 yielded a Kd of 8.55 nM.

B24: Ic_S4_P3E.1_K3.1_C3.1_H3.1_A3.1_[A6C]_F3.1_[A8G]_T3.1 (ssRNA)
RNA: B1 RNA with C28U, A29C, C30U, U31G
In the case of B24, the Kd is reported as 23.4 nM.

B25: Ic_S4_P3E.1_K3.1_C3.1_H3.1_A3.1_[A6T]_F3.1_[T7G]_[A8G]_T3.1 (ssRNA)
RNA: B1 RNA with C28U, A29U, C30G, U31G
For B25, the Kd was 2130 nM.

B26: Ic_S4_P3E.1_K3.1_C3.1_H3.1_A3.1_[A6T]_F3.1_[T7A]_[A8G]_T3.1 (ssRNA)
RNA: B1 RNA with C28U, A29U, C30A, U31G
For B26, the Kd was 944 nM.

B27: Ic_S4_P3E.1_K3.1_C3.1_H3.1_A3.1_[A6T]_F3.1_[T7A]_[A8C]_T3.1 (ssRNA)
RNA: B1 RNA with C28U, A29U, C30A, U31C
Binder B27 has a Kd of 123 nM.

B28: Ic_S4_P3E.1_K3.1_C3.1_H3.1_A3.1_[A6T]_F3.1_[A8G]_T3.1 (ssRNA)
RNA: B1 RNA with C28U, A29U, C30U, U31G
For B28, the Kd was 46.7 nM.

UCUCUUUGUGUAUUCUCUCUU (ssRNA) [Ib_S1_P4E.1_K4.1_C4.1_H4.1_[A4G]_A4.1_F4.1_[A9C]_T4.1] was tested, and the Kd was 40.4 nM.

B29: Ic_S4_P3E.1_K3.1_C3.1_H3.1_A3.1_[A6T]_F3.1_T3.1 (ssRNA)
RNA: B1 RNA with C28U, A29U, C30U, U31A
B29 showed a Kd of 15.3 nM.

B30: Ic_S4_P3E.1_K3.1_C3.1_H3.1_A3.1_F3.1_[T7G]_[A8T]_T3.1 (ssRNA)
RNA: B1 RNA with C28U, C30G
For B30, the Kd was 23.1 nM.

B31: Ic_S4_P3E.1_K3.1_C3.1_H3.1_A3.1_F3.1_[A8T]_T3.1 (ssRNA)
RNA: B1 RNA with C28U, C30U
With B31 the Kd was 3.03 nM.

B32: If_S4_P3E.1_K3.1_C3.1_H3.1_A3.1_F3.1_T3.1 (ssRNA)
RNA: B1 RNA with C28U, C30U, U31A
B32 showed a Kd of 1.99 nM.

B33: Ic_S4_P4E.1_K4.1_C4.1_H4.1_A4.1_[T5G]_[A6C]_[T7G]_F4.1_[T8G]_[A9C]_T4.1 (ssRNA)
RNA: UUUGACAACUGAUCGUUCUUUCUUGUAGCGGCUUCUUUCUCGAUCAGUUGUCUUU
With B33 the Kd was > 2300 nM.

B34: Ic_S4_P4E.1_K4.1_C4.1_H4.1_A4.1_[T5G]_[A6C]_[T7G]_F4.1_[T8C]_[A9C]_T4.1 (ssRNA)
RNA: B33 RNA with G31C
Binder B34 has a Kd of 1050 nM.

B35: Ic_S4_P4E.1_K4.1_C4.1_H4.1_A4.1_[T5G]_[A6C]_[T7C]_F4.1_[T8C]_[A9G]_T4.1 (ssRNA)
RNA: B33 RNA with G30C, G31C, C32G
Work on B35 yielded a Kd of 1440 nM.

B36: Ic_S4_P4E.1_K4.1_C4.1_H4.1_A4.1_[T5G]_[A6C]_[T7C]_F4.1_[T8C]_[A9C]_T4.1 (ssRNA)
RNA: B33 RNA with G30C, G31C
B36 was tested, and the Kd was 786 nM.

B37: Ic_S4_P4E.1_K4.1_C4.1_H4.1_A4.1_[T5G]_[A6C]_[T7C]_F4.1_[T8C]_T4.1 (ssRNA)
RNA: B33 RNA with G30C, G31C, C32A
B37 was tested, and the Kd was 997 nM.

B38: Ic_S4_P4E.1_K4.1_C4.1_H4.1_A4.1_[T5G]_[A6C]_[T7C]_F4.1_[T8A]_[A9T]_T4.1 (ssRNA)
RNA: B33 RNA with G30C, G31A, C32U
B38 gave a Kd of 428 nM.

In the case of UCUCUUUGUCUAUUCUCUCUU (ssRNA) [Ib_S1_P4E.1_K4.1_C4.1_H4.1_[A4C]_A4.1_F4.1_[A9C]_T4.1], the Kd is reported as 1920 nM.

B39: Ic_S4_P4E.1_K4.1_C4.1_H4.1_A4.1_[T5G]_[A6C]_[T7C]_F4.1_[T8A]_T4.1 (ssRNA)
RNA: B33 RNA with G30C, G31A, C32A
With B39 the Kd was 780 nM.

B40: Ic_S4_P4E.1_K4.1_C4.1_H4.1_A4.1_[T5G]_[A6C]_[T7C]_F4.1_[A9C]_T4.1 (ssRNA)
RNA: B33 RNA with G30C, G31U
B40 showed a Kd of 747 nM.

B41: Ic_S4_P4E.1_K4.1_C4.1_H4.1_A4.1_[T5G]_[A6C]_[T7A]_F4.1_[T8G]_[A9T]_T4.1 (ssRNA)
RNA: B33 RNA with G30A, C32U
B41 gave a Kd of 495 nM.
